In the supplement of paper PMC10567573:

B1: LOXL2 (parent)
chain: FSPDGPSRFRKAYKPEQPLVRLRG
B2: ZNF263 (parent)
chain: PEASHLRFRRFRFQEAAGPREALS

Variants of: B1
Assay: protein stability index of a GFP-peptide fusion (GPS, HEK-293T) (PSI 1-6); higher = more stable
Settings: c terminus: a fixed tail appended
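Further: lentivirally expressed fusions sorted by FACS into six bins by GFP to DsRed ratio, PSI derived from sequencing read proportions per bin multiplied by bin number.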

Protein stability index, by site and new letter:
R8: I 4.19, Y 2.66, L 1.5, W 3.95, T 2.1, Q 2.42, G 2.02, P 2.76, A 2.89, D 2.31, N 1.71, S 2.66, E 1.81, H 2.23, K 1.27, V 2.88, F 2.75
A12: Y 1.91, N 2.11, I 3.12, S 1.9, F 1.57, V 2.3, E 2.15, G 2.44, P 2.13, L 2.35, T 2.59, W 4.25, D 2.03, H 1.8, Q 1.96, C 1.88, R 1.42, K 2
S2: P 1.97, K 3.23, V 2.07, R 2.96, Y 2.36, W 1.84, E 3.62, L 1.92, G 2.11, H 2.68, N 2.01, T 3.36, M 2.37, Q 1.22, F 2.48, D 3.05
E16: A 1.96, Y 2.75, G 1.54, T 2.09, H 1.63, L 2.74, I 3.39, C 2.49, S 2.72, P 1.72, V 1.85, K 2.67, Q 2.92, F 1.39, N 1.64, D 2.65
S7: E 2.01, R 2.05, I 2.58, G 2.2, V 1.64, A 1, Q 2.32, K 1.94, F 2.09, C 3.07, T 1.49, H 2.54, P 2.18, D 1.69, N 2.89, M 1.96, L 4, Y 2.62
R10: M 2.1, D 2.2, Q 1.99, H 1.02, S 3.35, K 1.75, I 2.8, F 4, Y 1.98, P 2.14, C 3.46, E 2.5, N 1.94, L 1.97, V 2.46, G 1.78
P6: G 1.54, M 1.56, Y 2.16, Q 2.16, E 2, D 1.63, T 1.88, H 3.98, I 2.52, N 1.8, K 1.98, A 2.22, L 3.07
F9: L 2.01, H 2.81, W 2.45, C 2.78, Y 3.04, A 2.52, S 2.56, D 3.29, R 2.58, P 3.29, V 2.05, Q 3.94, G 3.03, M 2.56, I 2.23, N 2.85, E 3.71, T 2.27, K 2.58
Y13: E 2.15, S 2.44, Q 2.38, M 1.54, I 1.54, D 3.33, L 1.97, W 3.28, A 2.05, P 2.55, V 3.86, R 2.27, H 1.81, C 3.06, N 2.15, K 2.77, T 1.69, G 2.06, F 1.91
P3: N 1.73, K 1.71, R 2.12, C 1.97, H 1.9, V 2.6, Q 2.17, A 1.79, E 1.97, M 2.33, I 2.26, Y 2.13, F 2.41, S 2.31, T 2.21, L 1.96, D 2, W 1.66
D4: P 1.07, N 1.73, G 1.98, L 1.78, V 2.38, Y 2.82, W 2.58, E 2.44, Q 2.57, M 1.71, H 1.41, I 1.71, A 1.62, T 2.01, K 1.97, S 1.52, F 1.66, C 2.21
P15: W 1.5, E 1.43, C 3.13, T 1.41, S 3.74, D 1.68, N 2.52, R 2.88, Q 1.7, Y 1.6, F 1.83, I 2.07, K 1.66, H 1.7, G 2.48, V 2.28, A 1.85, M 2.79, L 3.53
Q17: I 2.18, G 2.53, H 1.46, N 1.4, A 2.07, L 2.03, F 2.74, K 1.54, D 2.08, E 4.03, C 2.65, M 2.48
F1: I 2.95, A 2.9, G 3.2, P 4.03, Q 3.85, W 3.12, D 3.9, Y 1.83, R 4.12, N 3.98, C 3.23, E 3.56, H 3.79, T 3.33, V 3.65, K 3.11, S 3.92, L 4.19, M 2.95
K14: D 1.86, M 2.19, T 3.59, S 1.48, N 2.35, H 2.06, C 3.06, I 2.86, V 2.71, W 1.99, Q 1.76, G 2.32, A 2.1, R 1.54, L 2.46, F 1.72, Y 2.61, P 1.95, E 1.83
G5: M 1.69, A 1.47, K 2.17, N 2.66, H 2.65, D 1.62, F 2.33, R 1.74, E 2.35, V 1.59, Q 2.33, L 2.02, I 2.51, T 1.92, S 2.38, C 2.03, P 2.21, Y 1.83
K11: S 1.62, T 3.77, E 3.54, L 2.31, I 1.76, R 2.72, G 2.27, N 2.7, P 2.41, F 2.21, M 2.98, D 1.28, Y 2.6, V 2.66, H 1.64, Q 3.17

Variants of: B2
Assay: as above
Settings: c terminus: a fixed tail appended

Protein stability index of substitutions, site by site:
A16: H 3, Y 2.1, D 2.99
S4: W 3.12, Y 2.83, Q 2.19, N 2.8
L23: G 3.04, T 2.84, V 2.93
P1: M 2.73, W 2.08, N 2.13
E2: A 2.88, V 2.12
F13: R 3.56, I 3.28
F8: G 3.29
S24: P 2.57, N 3.28
R9: A 3.18
R20: G 2.25, C 2.21
R10: F 1.79, K 2.65, I 1.86, V 1.26
L6: S 3.23, N 3.03, Y 1.66, I 2.42
F11: C 2.45, R 4.91
A3: C 2.95, F 2.8
P19: Y 1.69
E21: L 2.41, R 2.87, G 2.4
H5: M 3.39, A 2.61
R7: E 3.26, K 2.92
